Values of other authors, collected in article PMC11591972.

Target: Vm24 (Vaejovis mexicanus smithi) (UniProt P0DJ31)
Chain of UniProt P0DJ31 (P0DJ31 whole entry): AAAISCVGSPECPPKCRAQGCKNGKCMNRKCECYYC

Substance: Kv1.3 (from UniProt P22001)
- Kd: 3 pM
